Assay results taken from article PMC11864197 (Science Advances, 2025).

Tests used:
[1] = target: Full-length DDB1-DET1-DDA1 complex co-expressed with Ube2e2 (human, UniProt Q7L5Y6;Q16531;Q9BW61); assay: SEC
[2] = target: the molecule itself; assay: multiple angle light scattering
[3] = target: DDA1 (human, UniProt Q9BW61 1-102); assay: cryo-EM structure

Chain of Full-length DDB1-DET1-DDA1 complex co-expressed with Ube2e2 (Q7L5Y6 whole entry, one chain of several): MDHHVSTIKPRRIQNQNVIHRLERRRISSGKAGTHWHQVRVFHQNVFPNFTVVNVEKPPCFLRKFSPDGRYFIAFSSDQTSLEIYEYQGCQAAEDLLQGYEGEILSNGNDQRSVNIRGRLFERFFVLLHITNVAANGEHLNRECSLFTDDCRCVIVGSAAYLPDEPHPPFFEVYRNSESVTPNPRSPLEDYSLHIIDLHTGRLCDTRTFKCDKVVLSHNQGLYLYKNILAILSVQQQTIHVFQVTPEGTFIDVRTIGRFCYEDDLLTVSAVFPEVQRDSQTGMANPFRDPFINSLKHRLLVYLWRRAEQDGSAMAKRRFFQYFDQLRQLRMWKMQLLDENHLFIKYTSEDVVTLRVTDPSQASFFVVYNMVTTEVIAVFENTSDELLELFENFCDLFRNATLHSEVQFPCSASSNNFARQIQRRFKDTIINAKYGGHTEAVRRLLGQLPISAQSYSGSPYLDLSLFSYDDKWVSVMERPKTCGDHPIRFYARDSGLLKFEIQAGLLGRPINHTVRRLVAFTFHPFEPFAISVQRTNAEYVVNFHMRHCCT

B1: Full-length Ube2e2 co-expressed with the DDD complex (enzyme)
chain: MSTEAQRVDDSPSTSGGSSDGDQRESVQQEPEREQVQPKKKEGKISSKTAAKLSTSAKRIQKELAEITLDPPPNCSAGPKGDNIYEWRSTILGPPGSVYEGGVFFLDITFSPDYPFKPPKVTFRTRIYHCNINSQGVICLDILKDNWSPALTISKVLLSICSLLTDCNPADPLVGSIATQYMTNRAEHDRMARQWTKRYAT
binding result [1]: binds

B2: COP1 RING domain (residues 126 to 208) (domain or fragment)
chain: SYEDKSNDFVCPICFDMIEEAYMTKCGHSFCYKCIHQSLEDNNRCPKCNYVVDNIDHLYPNFLVNELILKQKQRFEEKRFKLD
stoichiometry N [2]: 2

B3: DDB1(ΔBPB) (natural protein)
chain: MSYNYVVTAQKPTAVNGCVTGHFTSAEDLNLLIAKNTRLEIYVVTAEGLRPVKEVGMYGKIAVMELFRPKGESKDLLFILTAKYNACILEYKQSGESIDIITRAHGNVQDRIGRPSETGIIGIIDPECRMIGLRLYDGLFKVIPLDRDNKELKAFNIRLEELHVIDVKFLYGCQAPTICFVYQDPQGRHVKTYEVSLREKEFNKGPWKQENVEAEASMVIAVPEPFGGAIIIGQESITYHNGDKYLAIAPPIIKQSTIVCHNRVDPNGSRYLLGDMEGRLFMLLLEKEEQMDGTVTLKDLRVELLGETSIAECLTYLDNGVVFVGSRLGDSQLVKLNVDSNEQGSYVVAMETFTNLGPIVDMCVVDLERQGQGQLVTCSGAFKEGSLRIIRNGIGIQKLHIRTVPLYESPRKICYQEVSQCFGVLSSRIEVQDTSGGTTALRPSASTQALSSSVSSSKLFSSSTAPHETSFGEEVEVHNLLIIDQHTFEVLHAHQFLQNEYALSLVSCKLGKDPNTYFIVGTAMVYPEEAEPKQGRIVVFQYSDGKLQTVAEKEVKGAVYSMVEFNGKLLASINSTVRLYEWTTEKELRTECNHYNNIMALYLKTKGDFILVGDLMRSVLLLAYKPMEGNFEEIARDFNPNWMSAVEILDDDNFLGAENAFNLFVCQKDSAATTDEERQHLQEVGLFHLGEFVNVFCHGSLVMQNLGETSTPTQGSVLFGTVNGMIGLVTSLSESWYNLLLDMQNRLNKVIKSVGKIEHSFWRSFHTERKTEPATGFIDGDLIESFLDISRPKMQEVVANLQYDDGSGMKREATADDLIKVVEELTRIH
binding result [3]: binds
